Consider 3 molecules from article doi:10.1101/755678.

In test [1] the target is RagA (TonB dependent transporter, PG_0185) of P. gingivalis W83 (Porphyromonas gingivalis W83). As to the kind of experiment: crystal structure.
The target is the same in test [2]. As to the kind of experiment: cryo-EM structure.
In test [3] the target is RagAB complex from wild-type P. gingivalis W83, 8×His-tag on the C terminus of RagB (Porphyromonas gingivalis W83). As to the kind of experiment: MST.
Test [4] addresses RagB from ATCC 33277, mature part, C-terminal His6-tag, expressed in E. coli (Porphyromonas gingivalis ATCC 33277). As to the kind of experiment: MST.
Test [5] concerns the target RagB from W83, mature part, C-terminal His6-tag, expressed in E. coli (Porphyromonas gingivalis W83). The test can be described thus: MST.

As usually defined, the stoichiometry N is the number of molecules, sites or subunits per partner or assembly. On to “RagA (TonB dependent transporter, PG_0185) of P. gingivalis W83 (natural protein)”, for which the stoichiometry N in test [1] and in test [2] was 2 each time.
As a reminder, the Kd is a measure of binding affinity in units of concentration. Regarding KATAEALKKALEEAGAEVELK [P21 peptide (21 residues from the C-terminus of ribosomal protein L7)], the Kd in test [3] turned out to be 0.4 µM; in test [4], 700 µM; in test [5], 2000 µM.
For NIFKKNVGFKK [P4 peptide (unlabelled)], the figures for the Kd in test [4] and in test [5] were 70 µM and 2000 µM, respectively.
